Measurements from patent US20240261333A1, “NOVEL TARGETS FOR ENHANCING ANTI-TUMOR IMMUNITY” (THE BROAD INSTITUTE, INC., priority 2021, published 2024).

T1: B3GNT2 (Homo sapiens, UniProt Q9NY97)
T1 construct: The respective ORFs of candidate genes [CD274 (NM_014143), MCL1 (NM_021960), JUNB (NM_002229), and B3GNT2 (NM_006577)] were synthesized; expressed in transfected cells; host or cells: A375 melanoma cells (lentiviral ORF overexpression)
T1 sequence (Q9NY97 1-397): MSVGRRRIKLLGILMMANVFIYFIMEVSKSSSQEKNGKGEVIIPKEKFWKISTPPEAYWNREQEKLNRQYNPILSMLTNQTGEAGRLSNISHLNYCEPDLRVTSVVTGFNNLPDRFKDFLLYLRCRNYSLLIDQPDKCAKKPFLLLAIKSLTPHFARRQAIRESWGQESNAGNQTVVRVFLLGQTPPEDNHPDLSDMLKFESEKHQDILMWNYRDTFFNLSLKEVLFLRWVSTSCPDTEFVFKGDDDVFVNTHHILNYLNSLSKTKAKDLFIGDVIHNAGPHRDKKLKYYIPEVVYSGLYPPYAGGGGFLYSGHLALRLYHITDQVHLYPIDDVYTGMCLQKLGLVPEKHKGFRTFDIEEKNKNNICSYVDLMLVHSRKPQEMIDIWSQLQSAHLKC


Target: T1, B3GNT2
Test: Co-IP of FLAG-tagged B3GNT2 followed by mass spectrometry
Format: cell-based
Set-up: C-term IgG / C-term flag: unit not given here
Conditions: Co-IP followed by mass spectrometry of B3GNT2; for C-term flag / C-term IgG: C-term tag; for C-term flag / N-term FLAG: FLAG pull-down; for C-term IgG / N-term IgG: IgG pull-down; for N-term FLAG / N-term IgG: N-term tag
Method: Cells were plated in 10-cm cell culture dishes and grown to 60-80% confluency. For each condition, two biological replicates were harvested for co-IP. Cells were washed with PBS and 4 mL of lysis buffer (20 mM HEPES, 1% Triton X-100, 150 mM NaCl, 1 mM EDTA, and 10% glycerol) containing protease inhibitor cocktail was added. Cells were scraped and lysate was incubated at 4° C. under rotary agitation for 1 h. Lysate was centrifuged at 14,000×g for 10 min at 4° C. Supernatant was transferred to a new tube and an aliquot was taken as the input. […] For Western blots, 10 μg/mL Chicken Anti-FLAG (Aves labs ET-DY100) and IgY control (R&D Systems AB-101-C) antibodies were biotinylated (Thermo Fisher Scientific 90407) and added to the respective conditions. Lysates with antibodies were incubated at 4° C. under rotary agitation overnight. For each mL of lysate, 50 μL of Pierce Protein A/G Magnetic Beads (Mass spectrometry; Thermo Fisher Scientific 88803) or Pierce Streptavidin Magnetic Beads (Western blot; Thermo Fisher Scientific 88817) was washed twice with lysis buffer. Lysates with antibodies were added to the beads and incubated at 4° C. under rotary agitation for 4 h. Beads were washed with lysis buffer 3 times and resuspended in lysis buffer for storage. […] This solution was subjected to solid phase extraction to concentrate the peptides and remove unwanted reagents followed by injection onto a Shimadzu HPLC with fraction collector. Eight fractions were collected and after concentration were injected on a Waters NanoAcquity HPLC equipped with a self-packed Aeris 3 μm C18 analytical column 0.075 mm by 20 cm, (Phenomenex). Peptides were eluted using standard reverse-phase gradients. The effluent from the column was analyzed using a Thermo Orbitrap Elite mass spectrometer (nanospray configuration) operated in a data dependent manner for 54 minutes. […] Scaffold Q+S (Proteome Software) was used to provide consensus reports for the identified proteins.

Row | Molecule | C-term flag | C-term IgG | N-term FLAG | N-term IgG
1 | DDX20 (protein) MAAAFEASGALAAVATAMPAEHVAVQVPAPEPTPGPVRILRTAQDLSSPRTRTGDVLLAEPADFESLLLSRPVLEGLRAAGFERPSPVQLKAIPLGRCGLDLIVQAKSGTGKTCVFSTIALDSLVLENLSTQILILAPTREIAVQIHSVITAIGIKMEGLECHVFIGGTPLSQDKTRLKKCHIAVGSPGRIKQLIELDYLNPGSIRLFILDEADKLLEEGSFQEQINWIYSSLPASKQMLAVSATYPEFLANALTKYMRDPTFVRLNSSDPSLIGLKQYYKVVNSYPLAHKVFEEKTQHLQELFSRIPFNQALVFSNLHSRAQHLADILSSKGFPAECISGNMNQNQRLDAMAKLKHFHCRVLISTDLTSRGIDAEKVNLVVNLDVPLDWETYMHRIGRAGRFGTLGLTVTYCCRGEEENMMMRIAQKCNINLLPLPDPIPSGLMEECVDWDVEVKAAVHTYGIASVPNQPLKKQIQKIERTLQIQKAHGDHMASSRNNSVSGLSVKSKNNTKQKLPVKSHSECGIIEKATSPKELGCDRQSEEQMKNSVQTPVENSTNSQHQVKEALPVSLPQIPCLSSFKIHQPYTLTFAELVEDYEHYIKEGLEKPVEIIRHYTGPGDQTVNPQNGFVRNKVIEQRVPVLASSSQSGDSESDSDSYSSRTSSQSKGNKSYLEGSSDNQLKDSESTPVDDRISLEQPPNGSDTPNPEKYQESPGIQMKTRLKEGASQRAKQSRRNLPRRSSFRLQTEAQEDDWYDCHREIRLSFSDTYQDYEEYWRAYYRAWQEYYAAASHSYYWNAQRHPSWMAAYHMNTIYLQEMMHSNQ | 6 | 0 | 0 | 0
2 | PBXIP1 (protein) MDPESERALQAPHSPSKTDGKELAGTMDGEGTLFQTESPQSGSILTEETEVKGTLEGDVCGVEPPGPGDTVVQGDLQETTVVTGLGPDTQDLEGQSPPQSLPSTPKAAWIREEGRCSSSDDDTDVDMEGLRRRRGREAGPPQPMVPLAVENQAGGEGAGGELGISLNMCLLGALVLLGLGVLLFSGGLSESETGPMEEVERQVLPDPEVLEAVGDRQDGLREQLQAPVPPDSVPSLQNMGLLLDKLAKENQDIRLLQAQLQAQKEELQSLMHQPKGLEEENAQLRGALQQGEAFQRALESELQQLRARLQGLEADCVRGPDGVCLSGGRGPQGDKAIREQGPREQEPELSFLKQKEQLEAEAQALRQELERQRRLLGSVQQDLERSLQDASRGDPAHAGLAELGHRLAQKLQGLENWGQDPGVSANASKAWHQKSHFQNSREWSGKEKWWDGQRDRKAEHWKHKKEESGRERKKNWGGQEDREPAGRWKEGRPRVEESGSKKEGKRQGPKEPPRKSGSFHSSGEKQKQPRWREGTKDSHDPLPSWAELLRPKYRAPQGCSGVDECARQEGLTFFGTELAPVRQQELASLLRTYLARLPWAGQLTKELPLSPAFFGEDGIFRHDRLRFRDFVDALEDSLEEVAVQQTGDDDEVDDFEDFIFSHFFGDKALKKRSGKKDKHSQSPRAAGPREGHSHSHHHHHRG | 4 | 0 | 2 | 0
3 | MTDH (protein, UniProt Q86UE4 1-582, looked up) Protein LYRIC: MAARSWQDELAQQAEEGSARLREMLSVGLGFLRTELGLDLGLEPKRYPGWVILVGTGALGLLLLFLLGYGWAAACAGARKKRRSPPRKREEAAAVPAAAPDDLALLKNLRSEEQKKKNRKKLSEKPKPNGRTVEVAEGEAVRTPQSVTAKQPPEIDKKNEKSKKNKKKSKSDAKAVQNSSRHDGKEVDEGAWETKISHREKRQQRKRDKVLTDSGSLDSTIPGIENTITVTTEQLTTASFPVGSKKNKGDSHLNVQVSNFKSGKGDSTLQVSSGLNENLTVNGGGWNEKSVKLSSQISAGEEKWNSVSPASAGKRKTEPSAWSQDTGDANTNGKDWGRSWSDRSIFSGIGSTAEPVSQSTTSDYQWDVSRNQPYIDDEWSGLNGLSSADPNSDWNAPAEEWGNWVDEERASLLKSQEPIPDDQKVSDDDKEKGEGALPTGKSKKKKKKKKKQGEDNSTAQDTEELEKEIREDLPVNTSKTRPKQEKAFSLKTISTSDPAEVLVKNSQPIKTLPPATSTEPSVILSKSDSDKSSSQVPPILQETDKSKSNTKQNSVPPSQTKSETSWESPKQIKKKKKARRET | 6 | 0 | 0 | 0
4 | ARG1 (protein) MSAKSRTIGIIGAPFSKGQPRGGVEEGPTVLRKAGLLEKLKEQECDVKDYGDLPFADIPNDSPFQIVKNPRSVGKASEQLAGKVAEVKKNGRISLVLGGDHSLAIGSISGHARVHPDLGVIWVDAHTDINTPLTTTSGNLHGQPVSFLLKELKGKIPDVPGFSWVTPCISAKDIVYIGLRDVDPGEHYILKTLGIKYFSMTEVDRLGIGKVMEETLSYLLGRKKRPIHLSFDVDGLDPSFTPATGTPVVGGLTYREGLYITEEIYKTGLLSGLDIMEVNPSLGKTPEEVTRTVNTAVAITLACFGLAREGNHKPIDYLNPPK | 6 | 4 | 8 | 4
5 | TMEM59 (protein) EAFDSVLGDTASCHRACQLTYPLHTYPKEEELYACQRGCRLFSICQFVDDGIDLNRTKLECESACTEAYSQSDEQYACHLGCQNQLPFAELRQEQLMSLMPKMHLLFPLTLVRSFWSDMMDSAQSFITSSWTFYLQADDGKIVIFQSKPEIQYAPHLEQEPTNLRESSLSKMSYLQMRNSQAHRNFLEDGESDGFLRCLSLNSGWILTTTLVLSVMVLLWICCATVATAVEQYVPSEKLSIYGDLEFMNEQKLNRYPASSLVVVRSKTEDHEEAGPLPTKVNLAHSEI | 0 | 0 | 6 | 0
6 | MTCH2 (protein, UniProt Q9Y6C9 2-303, looked up) Mitochondrial carrier homolog …: ADAASQVLLGSGLTILSQPLMYVKVLIQVGYEPLPPTIGRNIFGRQVCQLPGLFSYAQHIASIDGRRGLFTGLTPRLCSGVLGTVVHGKVLQHYQESDKGEELGPGNVQKEVSSSFDHVIKETTREMIARSAATLITHPFHVITLRSMVQFIGRESKYCGLCDSIITIYREEGILGFFAGLVPRLLGDILSLWLCNSLAYLVNTYALDSGVSTMNEMKSYSQAVTGFFASMLTYPFVLVSNLMAVNNCGLAGGCPPYSPIYTSWIDCWCMLQKEGNMSRGNSLFFRKVPFGKTYCCDLKMLI | 2 | 0 | 4 | 0
7 | NCCRP1 (protein) MEEVREGHALGGGMEADGPASLQELPPSPRSPSPPPSPPPLPSPPSLPSPAAPEAPELPEPAQPSEAHARQLLLEEWGPLSGGLELPQRLTWKLLLLRRPLYRNLLRSPNPEGINIYEPAPPTGPTQRPLETLGNFRGWYIRTEKLQQNQSWTVKQQCVDLLAEGLWEELLDDEQPAITVMDWFEDSRLDACVYELHVWLLAADRRTVIAQHHVAPRTSGRGPPGRWVQVSHVFRHYGPGVRFIHFLHKAKNRMEPGGLRRTRVTDSSVSVQLRE | 4 | 0 | 4 | 4
8 | LIMA1 (protein) MESSPFNRRQWTSLSLRVTAKELSLVNKNKSSAIVEIFSKYQKAAEETNMEKKRSNTENLSQHFRKGTLTVLKKKWENPGLGAESHTDSLRNSSTEIRHRADHPPAEVTSHAASGAKADQEEQIHPRSRLRSPPEALVQGRYPHIKDGEDLKDHSTESKKMENCLGESRHEVEKSEISENTDASGKIEKYNVPLNRLKMMFEKGEPTQTKILRAQSRSASGRKISENSYSLDDLEIGPGQLSSSTFDSEKNESRRNLELPRLSETSIKDRMAKYQAAVSKQSSSTNYTNELKASGGEIKIHKMEQKENVPPGPEVCITHQEGEKISANENSLAVRSTPAEDDSPGDSQVKSEVQQPVHPKPLSPDSRASSLSESSPPKAMKKFQAPARETCVECQKTVYPMERLLANQQVFHISCFRCSYCNNKLSLGTYASLHGRIYCKPHFNQLFKSKGNYDEGFGHRPHKDLWASKNENEEILERPAQLANARETPHSPGVEDAPIAKVGVLAASMEAKASSQQEKEDKPAETKKLRIAWPPPTELGSSGSALEEGIKMSKPKWPPEDEISKPEVPEDVDLDLKKLRRSSSLKERSRPFTVAASFQSTSVKSPKTVSPPIRKGWSMSEQSEESVGGRVAERKQVENAKASKKNGNVGKTTWQNKESKGETGKRSKEGHSLEMENENLVENGADSDEDDNSFLKQQSPQEPKSLNWSSFVDNTFAEEFTTQNQKSQDVELWEGEVVKELSVEEQIKRNRYYDEDEDEE | 2 | 0 | 4 | 3
